Blank lines part the entries; values can stand above or below the molecule they belong to.
Columns and labels:
ENTPD2 = molecular target: T1, ENTPD2 (Homo sapiens, UniProt Q9Y5L3); experiment: FACS binding to human ENTPD2 expressing cells (apparent FACS affinity); set-up: expressed in transfected cells; host or cells: NIH/3T3 (retroviral transduction)
T1 sequence (Q9Y5L3 1-495): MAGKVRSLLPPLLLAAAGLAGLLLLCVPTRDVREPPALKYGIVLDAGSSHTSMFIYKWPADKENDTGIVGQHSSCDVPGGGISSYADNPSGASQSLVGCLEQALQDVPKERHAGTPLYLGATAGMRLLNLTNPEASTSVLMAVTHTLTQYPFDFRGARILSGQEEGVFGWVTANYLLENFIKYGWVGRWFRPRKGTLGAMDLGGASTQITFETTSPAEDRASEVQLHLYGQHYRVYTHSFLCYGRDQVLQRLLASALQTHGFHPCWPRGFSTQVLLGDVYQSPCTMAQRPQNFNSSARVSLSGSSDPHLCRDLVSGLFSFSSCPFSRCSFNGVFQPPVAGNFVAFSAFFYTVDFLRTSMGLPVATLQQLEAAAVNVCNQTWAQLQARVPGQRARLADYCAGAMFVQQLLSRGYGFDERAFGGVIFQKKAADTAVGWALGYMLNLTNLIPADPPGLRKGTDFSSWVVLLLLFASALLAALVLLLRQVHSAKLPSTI
Procedure: […] Cells were rinsed thoroughly with 1×PBS and treated with Accutase (Millipore #SCR005) to lift from growth plates and resuspended at approximately 1×10^5 cells/90 μL in 1× FACS buffer (2% FBS+0.1% NaN3 in PBS). In a 96-well U-bottom plate, 10 μL of 10× antibody solution in FACS buffer was pre-seeded and 90 μL of cell suspension was added. Cell were incubated for 30 minutes at 4° C., washed 1× with cold PBS and resuspended in 100 μL of 1:500 secondary antibody 1× FACS buffer (Allophycocyanin conjugated F(ab′)2 goat anti-human IgG, Fcγ specific; Jackson Immunoresearch, Cat#109-136-098). After additional incubation for 15 min at 4° C., cells were washed twice with PBS and resuspended in 100 μL of 1×FACS buffer with 4 μg/mL propidium iodide (Life Technologies, Cat#P3566). Geometric mean fluorescence intensity was calculated on live single cells using FlowJo software.

cyno ENTPD2 = experiment: FACS binding to cyno ENTPD2 expressing cells (apparent FACS affinity); set-up: species or system cynomolgus monkey
Procedure: (§1) FACS screening: Specific binding of candidate antibodies to endogenously expressed ENTPD2 was assessed by flow cytometry. Cells were rinsed thoroughly with 1×PBS and treated with Accutase (Millipore #SCR005) to lift from growth plates and resuspended at approximately 1×10^5 cells/90 μL in 1× FACS buffer (2% FBS+0.1% NaN3 in PBS). In a 96-well U-bottom plate, 10 μL of 10× antibody solution in FACS buffer was pre-seeded and 90 μL of cell suspension was added. Cell were incubated for 30 minutes at 4° C., washed 1× with cold PBS and resuspended in 100 μL of 1:500 secondary antibody 1× FACS buffer (Allophycocyanin conjugated F(ab′)2 goat anti-human IgG, Fcγ specific; Jackson Immunoresearch, Cat#109-136-098). After additional incubation for 15 min at 4° C., cells were washed twice with PBS and resuspended in 100 μL of 1×FACS buffer with 4 μg/mL propidium iodide (Life Technologies, Cat#P3566). Geometric mean fluorescence intensity was calculated on live single cells using FlowJo software.

mouse ENTPD2 = molecular target: T2, mouse ENTPD2 (Mus musculus, UniProt O55026); experiment: Antibody specificity: binding to mouse ENTPD2; conditions: Mouse ENTPD2
T2 construct: residues 29-462 of mouse or rat ENTPD2 (the extracellular domain); mouse IgK signal peptide (N); His6; made in house; host or cells: FreeStyle 293-F cells, transient transfection
T2 sequence (O55026 29-462): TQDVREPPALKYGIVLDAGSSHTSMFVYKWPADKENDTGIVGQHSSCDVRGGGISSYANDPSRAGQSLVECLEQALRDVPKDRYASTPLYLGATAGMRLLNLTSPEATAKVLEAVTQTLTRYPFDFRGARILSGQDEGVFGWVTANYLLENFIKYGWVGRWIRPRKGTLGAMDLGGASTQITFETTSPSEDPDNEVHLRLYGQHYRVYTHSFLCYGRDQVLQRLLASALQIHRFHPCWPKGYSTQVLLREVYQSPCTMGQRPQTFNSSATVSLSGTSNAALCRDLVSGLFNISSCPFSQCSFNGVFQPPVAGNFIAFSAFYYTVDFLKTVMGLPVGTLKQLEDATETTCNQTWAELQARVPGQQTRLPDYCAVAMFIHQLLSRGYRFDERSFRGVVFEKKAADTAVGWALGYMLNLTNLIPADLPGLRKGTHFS
Source text: Antibody specificity for mAbl-mAblO was confirmed. […] Antibodies mAb8, mAb9, and mAb10 show weak affinity to mouse ENTPD2. None of the selected antibodies bind to rat ENTPD2.

RKO cells = molecular target: T3, RKO cells (Homo sapiens, UniProt Q9Y5L3); experiment: FACS binding to RKO cells with endogenous ENTPD2; conditions: read-out: Apparent FACS Affinity
T3 construct: colorectal cancer cells with endogenous ENTPD2 expression; host or cells: RKO
T3 sequence (Q9Y5L3 1-495): T1 sequence (Q9Y5L3 1-495)
Procedure: as §1

Sequence of cyno ENTPD2 (as listed by the source): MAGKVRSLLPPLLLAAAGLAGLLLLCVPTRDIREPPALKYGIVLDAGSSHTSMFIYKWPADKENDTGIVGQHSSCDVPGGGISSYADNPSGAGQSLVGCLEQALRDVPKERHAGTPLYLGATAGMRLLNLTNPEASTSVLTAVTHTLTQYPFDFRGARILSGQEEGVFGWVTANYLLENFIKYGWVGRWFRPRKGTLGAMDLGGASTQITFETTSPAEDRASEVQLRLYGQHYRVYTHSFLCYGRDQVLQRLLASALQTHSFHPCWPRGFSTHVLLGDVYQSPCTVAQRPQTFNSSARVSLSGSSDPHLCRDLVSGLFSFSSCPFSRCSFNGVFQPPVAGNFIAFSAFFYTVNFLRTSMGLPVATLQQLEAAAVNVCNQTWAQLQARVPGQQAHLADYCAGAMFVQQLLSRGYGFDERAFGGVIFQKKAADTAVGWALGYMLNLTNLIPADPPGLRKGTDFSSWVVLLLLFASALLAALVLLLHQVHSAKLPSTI

B1: mAb13: anti-mouse ENTPD2 antibody; HC SEQ ID NO: 193, LC SEQ ID NO: 204 (antibody)
heavy: QVQLVQSGAELKQPGQSVKISCKASGYTFTHYGMNWVKQAPGQGLKWMGWINTDTGNPTYADDFKGRFVFSLDTSVSTAYLQISNLKNEDTATYYCVRYGTLYSGYGFFFDSWGQGTLVTVSSAKTTAPSVYPLAPVCGDTTGSSVTLGCLVKGYFPEPVTLTWNSGSLSSGVHTFPAVLQSDLYTLSSSVTVTSSTWPSQSITCNVAHPASSTKVDKKIEPRGPTIKPCPPCKCPAPNLLGGPSVFIFPPKIKDVLMISLSPIVTCVVVDVSEDDPDVQISWFVNNVEVHTAQTQTHREDYNSTLRVVSALPIQHQDWMSGKEFKCKVNNKDLPAPIERTISKPKGSVRAPQVYVLPPPEEEMTKKQVTLTCMVTDFMPEDIYVEWTNNGKTELNYKNTEPVLDSDGSYFMYSKLRVEKKNWVERNSYSCSVVHEGLHNHHTTKSFSRTPGK
light: DIMMTQSPSSLSVSAGEKATITCKSSQSLFNSNTNKNYLNWYLQKPGQSPKLLFYYASTRHTGVPDRFIGSGSGTDFTLTITSVQDEDLADYYCQQWYSYPWTFGPGTKLEIKRADAAPTVSIFPPSSEQLTSGGASVVCFLNNFYPKDINVKWKIDGSERQNGVLNSWTDQDSKDSTYSMSSTLTLTKDEYERHNSYTCEATHKTSTSPIVKSFNRNEC
binding to human ENTPD2 (ENTPD2): no binding
binding to cyno ENTPD2 (cyno ENTPD2): no binding

BIACore KD (mouse ENTPD2): No binding
EC50 (ENTPD2; NIH3T3 humanENTPD2 cells): 0.5 nM
EC50 (cyno ENTPD2; NIH3T3 cynoENTPD2 cells): 0.8 nM
EC50 (RKO cells): 0.4 nM
B2: mAb7: humanized anti-human ENTPD2 antibody from mAb17; VH SEQ ID NO: 25, VL SEQ ID NO: 78 (antibody, V domains shown)
VH: QVQLVQSGAEVVKPGASVKISCKASGYTFTDYNMDWVKQAPGQRLEWIGDINPKYDISTYNQQFKGKATITVDKSASTAYMELSSLRSEDTAVYYCARRGFFLYYGINYYYFDVWGQGTLVTVSS
VL: EIVLTQSPATLSASPGEEITLSCSASSSVSYIHWYQQKPGQAPRLLIYSTSNLASGIPARFSGSGSGTFYTLTISSVEPEDAAVYYCHQWSSYPWTFGGGTKLEIK
